Measured values as given in US20120058118A1 (Boehringer Ingelheim, published 2012).
Read-outs that look alike come from different tables or passages of the source. Blank lines part the entries; values can stand above or below the binder they belong to. Ends that are not written are not given here.

Experiments:
[1] = molecular target: T1, His.Xa.Abeta1-28.GS.p38 fusion protein; assay: size exclusion chromatography, Experion quantification (0.87 µM and 0.86 µM)
T1 construct: His-tag, factor Xa site, A-beta(1-28), GS linker, murine p38 alpha; the SEC experiment names it only A-beta(1-28)-p38 fusion protein; also called A-beta(1-28)-p38 fusion protein; A-beta-p38 fusion protein
T1 chain: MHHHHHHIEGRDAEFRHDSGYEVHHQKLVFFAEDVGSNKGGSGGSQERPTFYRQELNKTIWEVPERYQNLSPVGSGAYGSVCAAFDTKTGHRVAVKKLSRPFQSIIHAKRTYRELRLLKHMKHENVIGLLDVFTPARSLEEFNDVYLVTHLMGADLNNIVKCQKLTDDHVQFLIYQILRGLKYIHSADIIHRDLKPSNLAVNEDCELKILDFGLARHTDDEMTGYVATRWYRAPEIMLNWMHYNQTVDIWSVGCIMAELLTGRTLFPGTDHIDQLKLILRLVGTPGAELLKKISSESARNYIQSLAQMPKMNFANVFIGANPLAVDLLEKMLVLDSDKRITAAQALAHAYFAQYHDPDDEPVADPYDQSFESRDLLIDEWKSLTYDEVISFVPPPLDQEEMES
Protocol: Determination of the binding mode using size exclusion chromatography: Size exclusion chromatography (SEC) separates molecules according to differences in size as they pass through a gel filtration medium packed in a column. The binding mode of biparatopic VHH constructs to their target can be identified by analysing the protein complex after incubating a 1:2 molar ratio of the respective VHH construct and the target protein. Therefore the mixture will be separated by SEC and the contents of the resulting peaks is analyzed by protein gel electrophoresis. […] The gel filtration produced two peaks which are further analyzed by SDS-PAGE using the automated electrophoresis station Experion (Bio-Rad, USA) and the appropriate chip (Pro260 Chip, Bio-Rad, USA).

[2] = molecular target: T2, human A-beta(1-40) peptide, monomeric (BAM) (human, biotin at the C-terminus in capture ELISA, SPR and TR-FRET; not biotinylated where coated directly (Example 7)); assay: ABII42D4 TR-FRET assay
T2 construct: synthetic peptide (Anaspec), TFA/HFIP treated to give monomer; also called monomeric A-beta

[3] = molecular target: T2, human A-beta(1-40) peptide, monomeric …; assay: 60A10 TR-FRET assay (labelled ABII60A10)
[4] = molecular target: T2, human A-beta(1-40) peptide, monomeric …; assay: 42D4 TR-FRET assay (labelled ABII42D4)
[5] = molecular target: T2, human A-beta(1-40) peptide, monomeric …; assay: BAM ELISA
[6] = molecular target: T3, aggregated A-beta(1-40) peptide (BAA) (human); assay: BAA ELISA
T3 construct: also called A-beta peptide aggregates

[7] = molecular target: T2, human A-beta(1-40) peptide, monomeric …; assay: TR-FRET competition
[8] = molecular target: T2, human A-beta(1-40) peptide, monomeric …; assay: SPR, captured C-terminally biotinylated A-beta(1-40), 1:1 model
Protocol: (§1) After capturing, surfaces are blocked by injecting an excess (200 μg/ml) of d-biotin for 180 s at 5 μl/min. A reference surface is washed and blocked with d-biotin. HBS-EP+buffer is used as the running buffer and experiments are performed at 25° C. For off-rate screening, periplasmic extracts of VHHs are injected at a 10-fold dilution for 2 min at 45 μl/min and are allowed to dissociate for 10 min. […] Between different VHH samples, the surfaces are regenerated with regeneration buffer (50 mM NaOH) for 25 s at 45 μl/min followed by 10 s 6M GuHCl at 45 μl/min if regeneration is incomplete. […] Data are double referenced by subtraction of the curves on the reference channel and of a blank running buffer injection. Sensorgrams are evaluated by fitting a 1:1 dissociation model using the Biacore T100 Evaluation software v1.1.1.

[9] = molecular target: T2, human A-beta(1-40) peptide, monomeric …; assay: SPR (Biacore T100), periplasmic extracts on captured biotinylated A-beta(1-40), 1:1 model
Protocol: as §1

[10] = molecular target: T2, human A-beta(1-40) peptide, monomeric …; assay: BAM ELISA; remark: listed apart in the source
[11] = molecular target: T4, A-beta(1-16) peptide (human); assay: SPR on captured A-beta(1-16)
T4 construct: Bachem peptide captured on streptavidin chip; also called monomeric A-beta(1-16)
T4 peptide: DAEFRHDSGYEVHHQK-biotin
Protocol: as §1

[12] = molecular target: T2, human A-beta(1-40) peptide, monomeric …; assay: TR-FRET competition, labelled ABII42D4
[13] = molecular target: T2, human A-beta(1-40) peptide, monomeric …; assay: TR-FRET competition, labelled ABII42D4; remark: listed apart in the source
[14] = molecular target: T3, aggregated A-beta(1-40) peptide (BAA); assay: BAA ELISA; remark: listed apart in the source
[15] = molecular target: T2, human A-beta(1-40) peptide, monomeric …; assay: TR-FRET competition; remark: listed apart in the source
[16] = molecular target: T2, human A-beta(1-40) peptide, monomeric …; assay: ABII002 TR-FRET competition assay
[17] = molecular target: T2, human A-beta(1-40) peptide, monomeric …; assay: TR-FRET competition, mean IC50; mean IC50 of Table XII
[18] = molecular target: T5, mouse A-beta(1-40) peptide (mouse); assay: ELISA EC50
T5 construct: Bachem peptide coated directly; also called rodent A-beta(1-40)
T5 peptide: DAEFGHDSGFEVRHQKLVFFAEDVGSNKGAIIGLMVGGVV

[19] = molecular target: T2, human A-beta(1-40) peptide, monomeric …; assay: TR-FRET competition and SPR
[20] = molecular target: T2, human A-beta(1-40) peptide, monomeric …; assay: ELISA, peptide coated at 2 µg/ml, anti-myc detection
[21] = molecular target: T5, mouse A-beta(1-40) peptide; assay: as above
[22] = molecular target: T2, human A-beta(1-40) peptide, monomeric …; assay: cell-based or functional assay
[23] = molecular target: T2, human A-beta(1-40) peptide, monomeric …; assay: TR-FRET competition; extrapolated curve
[24] = molecular target: T2, human A-beta(1-40) peptide, monomeric …; assay: TR-FRET competition, labelled ABII60A10; extrapolated curve
[25] = molecular target: T6, soluble APP-alpha (UniProt P05067-4 18-612, limits assumed, biotinylated where used as labelled partner); assay: TR-FRET: competition with labelled ABII320 for biotinylated sAPPalpha; non-labeled ABII035 as competitor; biotinylated sAPPalpha
T6 construct: bought; also called sAPPalpha
Protocol: Two independent experiments are performed applying a dilution series of the competitor compounds.

[26] = molecular target: T2, human A-beta(1-40) peptide, monomeric …; assay: ELISA, format not stated
[27] = molecular target: T2, human A-beta(1-40) peptide, monomeric …; assay: TR-FRET competition, mean IC50
[28] = molecular target: T2, human A-beta(1-40) peptide, monomeric …; assay: TR-FRET competition; labelled competitor not given
[29] = molecular target: T7, human A-beta peptide (residues 1-24) (human); assay: crystal structure
T7 construct: used for co-crystallisation; also called A-beta(1-24)
Protocol: The complex is concentrated by diafiltration to a concentration of 4 mg/ml. Crystallization trials are set up as sitting drop vapour diffusion experiments by mixing 200 nl of protein with 200 nl of reservoir solution against a reservoir volume of 100 μl. […] Data are collected at the beamline 6SA of the swiss light source at the Paul-Scherrer Institute in Villigen, Switzerland.

[30] = molecular target: T8, pGlu-A-beta(1-28), C-terminally biotinylated (human, pyroglutamate formed from the glutamate at position 3 (N-terminus); biotin at the C-terminus); assay: SPR on captured C-terminally biotinylated pGlu-A-beta(1-28), 1:1 model
T8 construct: printed as pGlu-A-beta(1-28), while the text says that the first two N-terminal residues are missing; range 3-28 is my reading; also called pyroglutamyl-Abeta
Description: Association and dissociation curves can be fitted using a 1:1 interaction model and an accurate KD value can be determined.

[31] = molecular target: T2, human A-beta(1-40) peptide, monomeric …; assay: ABII050 TR-FRET competition assay
[32] = molecular target: T2, human A-beta(1-40) peptide, monomeric …; assay: TR-FRET competition, labelled ABII60A10

T6 sequence (P05067 other isoform, or with tags, fused parts or gaps limits assumed): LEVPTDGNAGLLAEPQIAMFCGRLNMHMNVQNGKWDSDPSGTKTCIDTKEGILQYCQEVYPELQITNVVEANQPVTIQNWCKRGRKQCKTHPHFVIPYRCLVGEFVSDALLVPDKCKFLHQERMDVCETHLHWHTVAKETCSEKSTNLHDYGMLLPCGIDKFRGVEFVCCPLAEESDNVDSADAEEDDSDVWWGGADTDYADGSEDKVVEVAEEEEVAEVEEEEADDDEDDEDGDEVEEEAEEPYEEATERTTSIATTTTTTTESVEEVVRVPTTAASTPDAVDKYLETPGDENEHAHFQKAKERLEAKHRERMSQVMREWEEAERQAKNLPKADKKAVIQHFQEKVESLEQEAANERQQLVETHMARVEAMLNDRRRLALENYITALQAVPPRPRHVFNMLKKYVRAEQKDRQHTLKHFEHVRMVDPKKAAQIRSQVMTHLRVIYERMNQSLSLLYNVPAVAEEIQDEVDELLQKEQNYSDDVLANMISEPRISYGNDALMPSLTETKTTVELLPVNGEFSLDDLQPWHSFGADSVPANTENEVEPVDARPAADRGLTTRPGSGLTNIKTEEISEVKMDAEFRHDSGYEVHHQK

IC50 [16]: 2.9 nM | IC50 [17]: 2 nM | fold difference mouse against human A-beta [18]: 1.8 fold | IC50 [12]: 2.9 nM | fold improvement of IC50 and KD over original ABII42D4 [19]: > 10 fold | EC50 [20]: 1.8 nM | EC50 [21]: 3.3 nM
B4: ABII111B5_M107R = ABII002 (VHH)
VHH: EVQLVESGGGLVLAGGSLRLSCVHSGPTFRTDTMGWFRQAPGKEREFVAAVTWNSGRINYADSVKGRFTVSRDNTRNAAYLQMSGLKDEDTAVYYCTAHRFVVGGNRVEDWRYWGQGTQVTVSS
notes: myc-tagged in ELISA

EC50 [5]: 15.8 nM | Aggregation inhibition (% inhibition at 26 µM) [22]: 69% | EC50 [6]: 4.7 nM | IC50 [23]: 404 nM | EC50 [10]: 15.8 nM | IC50 [24]: 404 nM | EC50 [14]: 4.7 nM
B5: reference VHH 2D2 (VHH)
VHH: AVQLVDSGGGLVQAGGSLRLSCAVSGGTFSSIGMGWFRQAPGKEREFVGAISRSGDSTYYADSVKGRFTISRDGAKNTVYLQMNSLKDEDTAVYYCAGRPAGTAINIRRSYNYWGQGTQVTVSS
notes: from WO2006/40153, made and purified like the other VHHs

Kd [30]: 0.224 nM | IC50 [31]: 0.53 nM | IC50 [32]: 0.5 nM
B7: monoclonal antibody m266 (IgG) (antibody, V domains shown)
VH: EVKLVESGGGLVQPGGSLKLSCAVSGFTFSRYSMSWVRQTPEKRLELVAQINSVGNSTYYPDTVKGRFTISRDNAEYTLSLQMSGLRSDDTATYYCASGDYWGQGTTLTVSS
VL: DVVMTQTPLSLPVSLGDQASISCRSSQSLIYSDGNAYLHWFLQKPGQSPKLLIYKVSNRFSGVPDRFSGSGSGTDFTLKISRVETEDLGVYFCSQSTHVPWTFGGGTKLEIK
notes: also called IgG m266; IgG266

Further lines, the binder ahead of its results:

B1: 60A10-27GS-42D4-Alb (designed binder)
chain: EVQLVESGGGLVQAGGSLRLSCAASGRTFNNYNMGWFRQAPGKEREFVAAVSRSGVSTYYADSVKGRFTISRDNAKNAVYLQMNSLKPEDTAIYYCGAAYRGTAINVRRSYDSWGQGTQVTVSSGGGSGGGGSGGGGSGGGGSGGGGSGGGEVQLVESGGGLVLAGGSLRLSCVHSGPTFSTDTMGWFRQAPGKEREFVAAVTWNSGRTNYADSVKGRFTVSRDNTRNAAYLQMSGLKDEDTAVYYCTAHRLVVGGTSVGDWRYWGQGTQVTVSS
notes: calculated molecular weight 95 kDa; also called biparatopic VHH fused to human serum albumin; not shown: human serum albumin, fused C-terminally
ratio of A-beta(1-28)-p38 to 60A10-27GS-42D4-Alb in the complex [1]: ~1

B2: ABII42D4-9GS-ABII42D4 (designed binder)
chain: EVQLVESGGGLVLAGGSLRLSCVHSGPTFSTDTMGWFRQAPGKEREFVAAVTWNSGRTNYADSVKGRFTVSRDNTRNAAYLQMSGLKDEDTAVYYCTAHRLVVGGTSVGDWRYWGQGTQVTVSSGGGGSGGGGEVQLVESGGGLVLAGGSLRLSCVHSGPTFSTDTMGWFRQAPGKEREFVAAVTWNSGRTNYADSVKGRFTVSRDNTRNAAYLQMSGLKDEDTAVYYCTAHRLVVGGTSVGDWRYWGQGTQVTVSS
notes: VHH dimer with two identical domains; also called bivalent ABII42D4
fold improved IC50 against monovalent ABII42D4 [2]: 3.2 fold | IC50 [3]: > 1000 nM | IC50 [4]: 16 nM

B3: ABII42D4 (VHH)
VHH: EVQLVESGGGLVLAGGSLRLSCVHSGPTFSTDTMGWFRQAPGKEREFVAAVTWNSGRTNYADSVKGRFTVSRDNTRNAAYLQMSGLKDEDTAVYYCTAHRLVVGGTSVGDWRYWGQGTQVTVSS
notes: also called ABIIPMP42D4
EC50 [5]: 14.2 nM | EC50 [6]: 0.9 nM | fold improved IC50 against reference VHH 2G6 [7]: ≥ 21 fold | Kd [8]: 16 nM | koff [9]: 0.0061 s⁻¹ | IC50 [3]: > 1000 nM | EC50 [10]: 14.2 nM | binding result [11]: binds | IC50 [12]: 44 nM | IC50 [13]: 46.8 nM | EC50 [14]: 0.9 nM | IC50 [15]: 46.8 nM | IC50 [4]: 51 nM

B6: ABII035 (VHH)
VHH: EVQLLESGGGLVQPGGSLRLSCVHSGPTFRTDTMGWFRQAPGKGREFVAAVTWNSGRINYADSVKGRFTISRDNSKNTAYLQMNSLRPEDTAVYYCAAHRFVVGGNRVEDWRYWGQGTLVTVSS
notes: humanized variant of ABII002
Aggregation inhibition (% inhibition at 26 µM) [22]: 54% | IC50 [25]: 25.6 nM | IC50 [16]: 3.5 nM | fold difference mouse against human A-beta [18]: 2.2 fold | fold difference of EC50 against the 2D2 and 2G6 VHHs [26]: > 50 fold | IC50 [27]: 4 nM | EC50 [20]: 2.5 nM | EC50 [21]: 5.7 nM | IC50 [28]: 4 nM | binding result [29]: binds
